Patent US6998260 (PROMEGA, dated 2006)

B1: recombinant human β-II tryptase (from pPIC9-HumTryN102K, expressed in Pichia pastoris) (enzyme)
chain: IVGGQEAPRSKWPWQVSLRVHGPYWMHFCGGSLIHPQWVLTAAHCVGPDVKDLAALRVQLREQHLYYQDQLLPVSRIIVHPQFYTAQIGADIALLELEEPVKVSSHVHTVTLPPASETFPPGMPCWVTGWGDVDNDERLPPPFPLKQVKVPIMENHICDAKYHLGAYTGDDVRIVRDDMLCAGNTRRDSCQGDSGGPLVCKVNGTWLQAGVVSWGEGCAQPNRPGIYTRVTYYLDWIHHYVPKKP
modifications: N-glycosylated at one site
notes: Homotetramer by gel filtration; also called rh β II; R βII tryptase
B2: recombinant human β-I tryptase (from pPIC9-HumTry, expressed in Pichia pastoris) (enzyme)
chain: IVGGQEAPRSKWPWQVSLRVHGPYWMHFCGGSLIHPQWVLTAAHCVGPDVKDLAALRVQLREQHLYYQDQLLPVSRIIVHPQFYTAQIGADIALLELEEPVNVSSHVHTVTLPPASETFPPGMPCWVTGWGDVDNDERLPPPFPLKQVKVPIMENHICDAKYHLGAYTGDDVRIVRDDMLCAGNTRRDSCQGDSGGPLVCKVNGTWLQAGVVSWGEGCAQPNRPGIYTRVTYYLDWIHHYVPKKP
modifications: N-glycosylated at two sites (N102 and N204, as the filing says)
notes: Secreted as a mature monomer that self-assembles into a homotetramer; On the Western blots (SDS-PAGE) it stood as denatured subunits; also called rh β I; R βI tryptase
B3: human β-I tryptase active site mutant S194A (enzyme)
chain: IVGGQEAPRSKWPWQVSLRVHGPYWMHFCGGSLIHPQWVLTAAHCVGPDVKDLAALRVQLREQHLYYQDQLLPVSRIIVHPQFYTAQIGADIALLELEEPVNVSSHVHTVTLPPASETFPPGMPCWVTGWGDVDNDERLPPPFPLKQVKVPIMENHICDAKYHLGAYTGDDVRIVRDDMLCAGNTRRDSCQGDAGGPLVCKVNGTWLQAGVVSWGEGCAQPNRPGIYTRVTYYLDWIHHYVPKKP
notes: also called β-I S194A active site mutant; S194A β-I tryptase active site mutant

Molecular target: the molecule itself
Experiment: gel filtration; self-association of subunits into a homotetramer

Binding result, binds:
B1
B2
B3
